Like-named read-outs stand apart in the source and are kept apart here. Values belong to the substance of their own block, whether it stands above or below them.
Legend:
[1] = molecular target: integrin α2β1 α2 ligand binding domain (Homo sapiens) (UniProt P17301); settings: cited from earlier work
[2] = molecular target: integrin α5β1 (Homo sapiens) (UniProt P08648); settings: cited from earlier work
α5β1 integrin = α5β1 integrin (UniProt P08648); assay: optical biosensor (IAsys); α5β1 integrin immobilised; free LG3 at 3.1×10^−8 M to 3.1×10^−7 M, D3904A DV at 8.0×10^−8 M to 4.0×10^−7 M; global fitting; Kd calculated as koff/kon
[3] = molecular target: integrin α2β1 α2 ligand binding domain (Homo sapiens) (UniProt P17301); settings: cited from earlier work; remark: listed apart in the source

Sequence of α5β1 integrin (P08648 42-1049, chain 1 of 2): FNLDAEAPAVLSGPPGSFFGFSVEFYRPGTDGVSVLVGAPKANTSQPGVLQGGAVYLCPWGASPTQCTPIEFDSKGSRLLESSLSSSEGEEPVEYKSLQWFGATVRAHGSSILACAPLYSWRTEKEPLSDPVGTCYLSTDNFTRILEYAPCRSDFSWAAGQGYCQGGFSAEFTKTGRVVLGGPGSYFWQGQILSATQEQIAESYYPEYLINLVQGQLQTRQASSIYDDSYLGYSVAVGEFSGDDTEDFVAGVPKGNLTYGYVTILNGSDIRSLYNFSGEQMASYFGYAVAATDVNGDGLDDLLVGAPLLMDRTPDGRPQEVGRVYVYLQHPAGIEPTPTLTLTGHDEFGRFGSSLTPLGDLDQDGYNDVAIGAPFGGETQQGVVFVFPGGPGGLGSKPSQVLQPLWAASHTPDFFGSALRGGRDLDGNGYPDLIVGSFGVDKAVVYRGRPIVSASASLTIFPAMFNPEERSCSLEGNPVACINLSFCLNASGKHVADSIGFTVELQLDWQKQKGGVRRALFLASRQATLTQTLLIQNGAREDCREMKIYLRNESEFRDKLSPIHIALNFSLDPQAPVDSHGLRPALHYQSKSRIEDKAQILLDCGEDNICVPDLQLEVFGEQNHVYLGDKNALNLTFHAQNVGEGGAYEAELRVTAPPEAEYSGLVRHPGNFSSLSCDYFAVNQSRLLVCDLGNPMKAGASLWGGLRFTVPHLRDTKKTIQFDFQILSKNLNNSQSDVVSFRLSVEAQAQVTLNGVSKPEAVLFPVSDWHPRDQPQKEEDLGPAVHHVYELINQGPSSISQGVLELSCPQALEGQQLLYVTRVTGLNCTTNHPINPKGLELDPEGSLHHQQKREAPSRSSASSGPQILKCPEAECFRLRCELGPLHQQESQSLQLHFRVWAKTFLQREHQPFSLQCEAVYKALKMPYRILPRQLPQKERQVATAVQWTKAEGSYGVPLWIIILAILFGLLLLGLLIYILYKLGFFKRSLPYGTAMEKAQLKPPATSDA
Sequence of α5β1 integrin (P05556 21-798, chain 2 of 2, further chain): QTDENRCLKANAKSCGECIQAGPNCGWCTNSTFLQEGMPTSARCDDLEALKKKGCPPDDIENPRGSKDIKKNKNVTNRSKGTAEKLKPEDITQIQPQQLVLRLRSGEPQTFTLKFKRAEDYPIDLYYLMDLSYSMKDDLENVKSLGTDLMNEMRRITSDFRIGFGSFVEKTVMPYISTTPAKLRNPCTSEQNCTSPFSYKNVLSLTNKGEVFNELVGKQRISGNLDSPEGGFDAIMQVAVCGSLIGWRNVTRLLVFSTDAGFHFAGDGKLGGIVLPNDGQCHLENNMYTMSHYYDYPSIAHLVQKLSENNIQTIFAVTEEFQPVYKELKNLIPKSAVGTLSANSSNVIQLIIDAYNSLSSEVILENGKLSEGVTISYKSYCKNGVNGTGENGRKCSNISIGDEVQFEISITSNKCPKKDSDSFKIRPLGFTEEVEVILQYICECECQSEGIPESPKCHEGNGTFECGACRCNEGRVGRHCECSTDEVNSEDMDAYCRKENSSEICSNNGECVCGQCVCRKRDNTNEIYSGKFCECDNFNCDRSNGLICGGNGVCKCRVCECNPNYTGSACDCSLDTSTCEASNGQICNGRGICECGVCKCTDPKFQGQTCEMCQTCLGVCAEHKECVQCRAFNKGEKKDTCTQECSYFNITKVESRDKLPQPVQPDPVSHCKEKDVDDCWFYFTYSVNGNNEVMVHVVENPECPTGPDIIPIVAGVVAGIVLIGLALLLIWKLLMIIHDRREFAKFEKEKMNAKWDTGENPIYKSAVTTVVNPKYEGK
Sequence of Perlecan domain V Domain V (P98160 3687-4391): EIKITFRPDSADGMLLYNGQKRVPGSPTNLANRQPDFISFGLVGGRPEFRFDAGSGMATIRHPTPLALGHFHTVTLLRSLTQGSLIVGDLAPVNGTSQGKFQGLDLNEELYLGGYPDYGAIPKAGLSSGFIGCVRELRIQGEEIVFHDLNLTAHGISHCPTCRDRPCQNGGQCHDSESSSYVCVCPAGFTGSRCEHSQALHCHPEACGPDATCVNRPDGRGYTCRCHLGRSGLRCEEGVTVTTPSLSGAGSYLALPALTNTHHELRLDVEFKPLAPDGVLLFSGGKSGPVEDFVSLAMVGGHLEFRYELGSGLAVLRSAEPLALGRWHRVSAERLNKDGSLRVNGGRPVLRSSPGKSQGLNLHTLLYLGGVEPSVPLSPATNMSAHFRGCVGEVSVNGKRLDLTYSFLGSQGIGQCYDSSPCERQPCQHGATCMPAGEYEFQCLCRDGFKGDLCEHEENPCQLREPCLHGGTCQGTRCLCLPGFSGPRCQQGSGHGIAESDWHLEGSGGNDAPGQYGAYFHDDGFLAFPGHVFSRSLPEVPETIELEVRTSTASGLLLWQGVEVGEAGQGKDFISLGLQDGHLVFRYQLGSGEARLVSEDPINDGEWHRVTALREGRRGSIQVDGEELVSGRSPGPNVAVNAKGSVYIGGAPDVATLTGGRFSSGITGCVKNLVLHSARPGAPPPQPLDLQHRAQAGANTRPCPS
Sequence of integrin α2β1 α2 ligand binding domain (Homo sapiens) (P17301 30-1132, chain 1 of 2): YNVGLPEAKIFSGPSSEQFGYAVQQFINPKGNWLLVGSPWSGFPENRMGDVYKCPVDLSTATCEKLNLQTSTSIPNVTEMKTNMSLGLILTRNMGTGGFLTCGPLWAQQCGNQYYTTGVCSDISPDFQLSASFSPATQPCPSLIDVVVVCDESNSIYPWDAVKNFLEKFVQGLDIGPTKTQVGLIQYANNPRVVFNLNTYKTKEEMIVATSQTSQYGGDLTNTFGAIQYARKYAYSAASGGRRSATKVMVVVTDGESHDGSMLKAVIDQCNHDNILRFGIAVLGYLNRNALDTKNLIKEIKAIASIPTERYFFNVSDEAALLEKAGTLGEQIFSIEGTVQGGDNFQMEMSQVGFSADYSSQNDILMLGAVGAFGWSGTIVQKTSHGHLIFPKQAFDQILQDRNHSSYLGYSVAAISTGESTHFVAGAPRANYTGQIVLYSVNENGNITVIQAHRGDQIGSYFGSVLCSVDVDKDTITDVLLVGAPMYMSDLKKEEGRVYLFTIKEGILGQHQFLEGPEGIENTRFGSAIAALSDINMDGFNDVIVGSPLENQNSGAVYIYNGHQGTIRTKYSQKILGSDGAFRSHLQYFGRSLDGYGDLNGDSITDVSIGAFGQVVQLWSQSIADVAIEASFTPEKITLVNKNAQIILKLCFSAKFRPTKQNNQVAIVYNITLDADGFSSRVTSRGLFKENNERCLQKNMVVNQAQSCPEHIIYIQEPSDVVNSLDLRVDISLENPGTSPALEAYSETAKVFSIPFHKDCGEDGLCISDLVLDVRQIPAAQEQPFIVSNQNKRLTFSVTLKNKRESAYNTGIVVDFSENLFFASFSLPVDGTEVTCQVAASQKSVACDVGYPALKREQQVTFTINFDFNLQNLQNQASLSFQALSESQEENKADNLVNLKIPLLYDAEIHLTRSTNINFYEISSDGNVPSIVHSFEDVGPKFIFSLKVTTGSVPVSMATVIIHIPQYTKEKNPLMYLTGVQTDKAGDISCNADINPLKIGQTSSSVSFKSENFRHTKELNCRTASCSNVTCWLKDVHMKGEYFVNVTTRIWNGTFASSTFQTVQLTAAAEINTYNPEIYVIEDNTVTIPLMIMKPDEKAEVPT
Sequence of integrin α2β1 α2 ligand binding domain (Homo sapiens) (P05556 21-728, chain 2 of 2, further chain): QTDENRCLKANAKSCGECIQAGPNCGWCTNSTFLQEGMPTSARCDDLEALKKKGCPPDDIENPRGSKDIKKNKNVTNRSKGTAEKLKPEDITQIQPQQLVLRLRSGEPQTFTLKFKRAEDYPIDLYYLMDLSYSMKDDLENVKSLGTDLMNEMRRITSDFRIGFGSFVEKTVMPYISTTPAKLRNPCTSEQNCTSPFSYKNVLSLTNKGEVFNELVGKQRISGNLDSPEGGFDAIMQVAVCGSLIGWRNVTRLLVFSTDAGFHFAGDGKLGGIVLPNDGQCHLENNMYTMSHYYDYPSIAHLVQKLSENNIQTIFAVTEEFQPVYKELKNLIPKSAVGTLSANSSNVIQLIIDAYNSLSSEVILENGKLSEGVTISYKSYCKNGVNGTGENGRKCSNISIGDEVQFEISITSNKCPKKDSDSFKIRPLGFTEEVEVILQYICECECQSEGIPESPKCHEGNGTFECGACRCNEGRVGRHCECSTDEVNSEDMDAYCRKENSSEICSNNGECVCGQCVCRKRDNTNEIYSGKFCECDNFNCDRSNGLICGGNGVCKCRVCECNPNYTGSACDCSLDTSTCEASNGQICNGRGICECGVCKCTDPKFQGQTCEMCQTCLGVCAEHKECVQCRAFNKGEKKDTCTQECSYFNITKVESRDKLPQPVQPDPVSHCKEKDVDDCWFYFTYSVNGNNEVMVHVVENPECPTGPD
Sequence of Perlecan LG3 LG3 (P98160 4194-4391): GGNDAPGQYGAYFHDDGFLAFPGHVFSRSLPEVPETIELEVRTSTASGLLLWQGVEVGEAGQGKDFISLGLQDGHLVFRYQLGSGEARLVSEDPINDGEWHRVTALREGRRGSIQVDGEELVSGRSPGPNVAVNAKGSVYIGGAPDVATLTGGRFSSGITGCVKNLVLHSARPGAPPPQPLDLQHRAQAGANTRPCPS

Substance: Perlecan domain V Domain V (from UniProt P98160)
- Kd [1]: 80 nM
- Kd [2]: 160 nM

- Kd (α5β1 integrin): 370 nM
- koff (α5β1 integrin): 0.22 s⁻¹
- kon (α5β1 integrin): 600000 M⁻¹ s⁻¹
Substance: D3904A DV (perlecan Domain V with A in place of the D of its DGR sequence) (domain or fragment; other documents disagree on this pair)

Substance: Perlecan LG3 LG3 (from UniProt P98160)
- Kd [3]: 1000 nM

From PMC3444475
